Our source for the BLI-Response (self-interaction signal) values is patent US20240400715A1.

Assay [1] addresses EGFR-CD3 bispecific antibody 401. In words: BLI self-interaction: antibody captured on AHQ anti-human Fc sensor, free sites blocked with human IgG, same antibody in solution.
Assay [2] concerns the target HER2-CD3 bispecific antibody 504. The description is as above.

B1: EGFR-CD3 bispecific antibody 401 (bispecific antibody, human IgG4 S228P, kappa, F234A L235A)
heavy: EVKLLESGGGLVQPKGSLKLSCAASGFTFNTYAMNWVRQAPGKGLEWVARIRSKYNNYATYYADSVKDRFTISRDDSQSILYLQMNNLKTEDTAMYYCVRHGNFGNSYVSWFAYWGQGTLVTVSSASTKGPSVFPLAPCSRSTSESTAALGCLVKDYFPEPVTVSWNSGALTSGVHTFPAVLQSSGLYSLSSVVTVPSSSLGTKTYTCNVDHKPSNTKVDKRVESKYGPPCPPCPAPEAAGGPSVFLFPPKPKDTLMISRTPEVTCVVVDVSQEDPEVQFNWYVDGVEVHNAKTKPREEQFNSTYRVVSVLTVLHQDWLNGKEYKCKVSNKGLPSSIEKTISKAKGQPREPQVYTLPPCQEEMTKNQVSLWCLVKGFYPSDIAVEWESNGQPENNYKTTPPVLDSDGSFFLYSRLTVDKSRWQEGNVFSCSVMHEALHNHYTQKSLSLSL
chain: QVQLQESGGGSVQAGGSLKLSCAASGRGFSRYAMGWFRQAPGQDREFVATISWTNSTDYADSVKGRFAISRDNAKNTAYLQMNSLKPEDTAVYYCAADKWASSTRSIDYDYWGQGIQVTVSSESKYGPPCPPCPAPEAAGGPSVFLFPPKPKDTLMISRTPEVTCVVVDVSQEDPEVQFNWYVDGVEVHNAKTKPREEQFNSTYRVVSVLTVLHQDWLNGKEYKCKVSNKGLPSSIEKTISKAKGQPREPQVCTLPPSQEEMTKNQVSLSCAVKGFYPSDIAVEWESNGQPENNYKTTPPVLDSDGSFFLVSRLTVDKSRWQEGNVFSCSVMHEALHNRFTQKSLSLSL
light: QAVVTQESALTTSPGETVTLTCRSSTGAVTTSNYANWVQEKPDHLFTGLIGGTNKRAPGVPARFSGSLIGDKAALTITGAQTEDEAIYFCALWYSNLWVFGGGTKVEIKRTVAAPSVFIFPPSDEQLKSGTASVVCLLNNFYPREAKVQWKVDNALQSGNSQESVTEQDSKDSTYSLSSTLTLSKADYEKHKVYACEVTHQGLSSPVTKSFNRGEC
Regarding B1, the BLI-Response (self-interaction signal) in assay [1] stood at 0.043 nm.

B2: HER2-CD3 bispecific antibody 504 (bispecific antibody, human IgG4 S228P, kappa, F234A L235A)
chain: QVQLVQSGGGLVQAGGSLRLSCAASGRTFSSYAMAWFRQAPGKEREFVAAISWSGANIYVADSVKGRFTISRDNAKDTVYLQMNSLKPEDTAVYYCAVKLGFAPVEERQYDYWGQGTQVTVSSESKYGPPCPPCPAPEAAGGPSVFLFPPKPKDTLMISRTPEVTCVVVDVSQEDPEVQFNWYVDGVEVHNAKTKPREEQFNSTYRVVSVLTVLHQDWLNGKEYKCKVSNKGLPSSIEKTISKAKGQPREPQVYTLPPCQEEMTKNQVSLWCLVKGFYPSDIAVEWESNGQPENNYKTTPPVLDSDGSFFLYSRLTVDKSRWQEGNVFSCSVMHEALHNHYTQKSLSLSL
heavy: EVKLLESGGGLVQPKGSLKLSCAASGFTFNTYAMNWVRQAPGKGLEWVARIRSKYNNYATYYADSVKDRFTISRDDSQSILYLQMNNLKTEDTAMYYCVRHGNFGNSYVSWFAYWGQGTLVTVSSASTKGPSVFPLAPCSRSTSESTAALGCLVKDYFPEPVTVSWNSGALTSGVHTFPAVLQSSGLYSLSSVVTVPSSSLGTKTYTCNVDHKPSNTKVDKRVESKYGPPCPPCPAPEAAGGPSVFLFPPKPKDTLMISRTPEVTCVVVDVSQEDPEVQFNWYVDGVEVHNAKTKPREEQFNSTYRVVSVLTVLHQDWLNGKEYKCKVSNKGLPSSIEKTISKAKGQPREPQVCTLPPSQEEMTKNQVSLSCAVKGFYPSDIAVEWESNGQPENNYKTTPPVLDSDGSFFLVSRLTVDKSRWQEGNVFSCSVMHEALHNRFTQKSLSLSL
light: QAVVTQESALTTSPGETVTLTCRSSTGAVTTSNYANWVQEKPDHLFTGLIGGTNKRAPGVPARFSGSLIGDKAALTITGAQTEDEAIYFCALWYSNLWVFGGGTKVEIKRTVAAPSVFIFPPSDEQLKSGTASVVCLLNNFYPREAKVQWKVDNALQSGNSQESVTEQDSKDSTYSLSSTLTLSKADYEKHKVYACEVTHQGLSSPVTKSFNRGEC
In assay [2], B2 displayed a BLI-Response (self-interaction signal) of 0.07 nm.
